Here are results for 3 molecules from US20260248940A1, “Antibody-Drug Conjugates and Uses Thereof” (Vivasor, Inc., priority 2023, published 2026).

Data set [1] relates to Hs700T (B7-H3+) cells. The data set is described as follows: Cell viability assay (CellTiter-Glo 2.0, 120-hour) in Hs700T cells. It is filed as cell-based. Particulars: Homo sapiens, Hs 700T, Table 4A, B7-H3 positive, 120-hour treatment. On the technique in general: ATP-based viability assays read luminescence as a measure of living cells.
Data set [2] relates to Calu6 (B7-H3+) cells. The data set is described as follows: Cell viability assay (CellTiter-Glo 2.0, 120-hour) in Calu6 cells. The class given is cell-based. Particulars: Homo sapiens, Calu-6; Table 4A; Calu6, B7-H3 positive; 120-hour treatment.
Data set [3] concerns U2OS (B7-H3+) cells. The data set is described as follows: Cell viability assay (CellTiter-Glo 2.0, 120-hour) in U2OS cells. The class given is cell-based. Particulars: Homo sapiens, Table 4A, B7-H3 positive, 120-hour treatment.
Data set [4] concerns PA-1 (B7-H3+) cells. The data set is described as follows: Cell viability assay (CellTiter-Glo 2.0, 120-hour) in PA-1 cells. The class given is cell-based. Particulars: Homo sapiens; Table 4A; PA-1, B7-H3 positive; 120-hour treatment.
The test system of data set [5] is NCI-H929 (B7-H3−) cells. The data set is described as follows: Cell viability assay (CellTiter-Glo 2.0, 120-hour) in NCI-H929 cells. It is filed as cell-based. The note with it: Homo sapiens; Table 4A; NCI-H929, B7-H3 negative; 120-hour treatment.
Data set [6] has as its target T1, human B7-H3 protein (human, UniProt Q5ZPR3 29-534).
T1 construct: Endogenous B7-H3 on human cancer cell lines; also called CD276; B7-H3 receptor
T1 sequence: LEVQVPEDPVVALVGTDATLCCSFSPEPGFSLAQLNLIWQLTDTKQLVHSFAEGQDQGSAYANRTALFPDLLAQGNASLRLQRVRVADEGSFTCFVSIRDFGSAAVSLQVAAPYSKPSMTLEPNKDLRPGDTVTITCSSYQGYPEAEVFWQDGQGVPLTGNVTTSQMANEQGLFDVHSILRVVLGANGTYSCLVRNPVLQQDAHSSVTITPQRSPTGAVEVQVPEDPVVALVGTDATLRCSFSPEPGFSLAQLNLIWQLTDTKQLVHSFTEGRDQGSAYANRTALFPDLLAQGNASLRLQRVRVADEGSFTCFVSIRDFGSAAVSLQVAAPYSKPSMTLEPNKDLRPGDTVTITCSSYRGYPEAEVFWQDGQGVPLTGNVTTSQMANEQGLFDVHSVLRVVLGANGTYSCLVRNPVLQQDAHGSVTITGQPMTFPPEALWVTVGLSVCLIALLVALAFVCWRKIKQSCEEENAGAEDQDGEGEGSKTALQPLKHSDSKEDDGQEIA
The data set is described as follows: flow cytometry on A549 cells, PE-labelled goat anti-human secondary antibody, geometric mean fluorescence. Here is the method:
(§1) B7-H3 binding: Tumor cell cultures were harvested by non-enzymatic cell dissociation and plated in RPMI1640 supplemented with 10% fetal bovine serum (FBS) in a 96 well plate. A dilution curve of B7H3 antibody was prepared as a 2× solution and added to each well and incubated at 4C for 1 hour. The cells were washed with PBS+2% FBS+5 mM EDTA (FACS Buffer) before incubation with R-Phycoerythrin labeled goat anti-human secondary antibody for 1 hour at 4C. Cells were washed with FACS buffer and analyzed by flow cytometry.

The target in data set [7] is T1, human B7-H3 protein. The data set is described as follows: flow cytometry on FaDu cells, PE-labelled goat anti-human secondary antibody, geometric mean fluorescence. Here is the method:
as §1
A general note: In flow cytometry, cells or beads pass a laser one at a time.

Data set [8] addresses T1, human B7-H3 protein. The data set is described as follows: flow cytometry on U2OS cells, PE-labelled goat anti-human secondary antibody, geometric mean fluorescence. Here is the method:
as §1

Data set [9] concerns the target T1, human B7-H3 protein. The data set is described as follows: flow cytometry on Hs700T cells, PE-labelled goat anti-human secondary antibody, geometric mean fluorescence. As for the experimental part:
as §1

Data set [10] has as its target T1, human B7-H3 protein. The data set is described as follows: flow cytometry on HCT-116 cells, PE-labelled goat anti-human secondary antibody, geometric mean fluorescence. As for the experimental part:
as §1

Data set [11] concerns the target T1, human B7-H3 protein. The data set is described as follows: flow cytometry on SkNBE(2) cells, PE-labelled goat anti-human secondary antibody, geometric mean fluorescence. As for the experimental part: as §1
In data set [12] the target is T1, human B7-H3 protein. The data set is described as follows: flow cytometry on MDA-MB-231 cells, PE-labelled goat anti-human secondary antibody, geometric mean fluorescence. Here is the method: as §1
The test system of data set [13] is B7-H3-expressing renal cell and bladder carcinoma. The note with it: Loo et al., 2012; cited from earlier work.
For data set [14] the following is noted: cynomolgus monkeys; Loo et al., 2012; cited from earlier work.

Usually EC50 stands for the midpoint of the concentration-response curve. A lower EC50 goes with a more potent agent. One may read the Kd as the free concentration of one partner at which half of the binding sites on the other are occupied at equilibrium, for simple one-to-one binding. The EC50 (read off the curve) is the concentration needed to bring the measured effect to its halfway point. Higher therefore signals lower potency in that assay.

As for `CC[C@@]1(O)C(=O)OCc2c1cc1n(c2=O)Cc2c-1nc1cc(F)c(C)c3c1c2[C@@H](NC(=O)CO)CC3` [Dxd], the EC50 in [1] amounted to 43.9 nM; in [2], 7 nM; in data set [3] it was 337 nM; in data set [4], 2 nM; in [5], 4.7 nM.

B1: anti-B7-H3 antibody (B7-H3 VA clone) (antibody, V domains shown)
VH: QVQLVQSGAEVKKPGASVKVSCKASGYTFTDSYMHWVRQAPGQGLEWMGWISPRTGGTDYAQKFQGRVTMTRDTSISTAYMELSRLRSDDTAVYYCARGSSRGNDYWGQGTLVTVSS
VL: QSVLTQPASVSGSPGQSITISCTGTGSDVGGYNYVSWYQQHPGKAPKLIIYDVTKRPSGFSNRFSGSKSGNTASLTISGLQAEDEADYYCSSYTSRRTYVFGTGTKLTVL
notes: IgG/IgG1 appears only as an embodiment; It was detected with a goat anti-human secondary antibody; also called anti-B7H3 VA clone; Sorrento's VA clone
With B1, the dissociation constant Kd came out at 0.192 nM in data set [6]; 0.2 nM in [7]; 0.257 nM in data set [8]; 0.485 nM in [9]; 0.238 nM in [10]; 0.0968 nM in data set [11]. Moreover, the Kd in data set [12] turned out to be 0.168 nM. Further, the “EC50 (read off the curve)” value in data set [7] is around 0.2 nM; in data set [8], around 0.3 nM; in data set [9] it was around 0.5 nM.

B2: Enoblituzumab (antibody, chains of the INN, looked up)
heavy: EVQLVESGGGLVQPGGSLRLSCAASGFTFSSFGMHWVRQAPGKGLEWVAYISSDSSAIYYADTVKGRFTISRDNAKNSLYLQMNSLRDEDTAVYYCGRGRENIYYGSRLDYWGQGTTVTVSSASTKGPSVFPLAPSSKSTSGGTAALGCLVKDYFPEPVTVSWNSGALTSGVHTFPAVLQSSGLYSLSSVVTVPSSSLGTQTYICNVNHKPSNTKVDKRVEPKSCDKTHTCPPCPAPELVGGPSVFLLPPKPKDTLMISRTPEVTCVVVDVSHEDPEVKFNWYVDGVEVHNAKTKPPEEQYNSTLRVVSVLTVLHQDWLNGKEYKCKVSNKALPAPIEKTISKAKGQPREPQVYTLPPSREEMTKNQVSLTCLVKGFYPSDIAVEWESNGQPENNYKTTPLVLDSDGSFFLYSKLTVDKSRWQQGNVFSCSVMHEALHNHYTQKSLSLSPG
light: DIQLTQSPSFLSASVGDRVTITCKASQNVDTNVAWYQQKPGKAPKALIYSASYRYSGVPSRFSGSGSGTDFTLTISSLQPEDFATYYCQQYNNYPFTFGQGTKLEIKRTVAAPSVFIFPPSDEQLKSGTASVVCLLNNFYPREAKVQWKVDNALQSGNSQESVTEQDSKDSTYSLSSTLTLSKADYEKHKVYACEVTHQGLSSPVTKSFNRGEC
notes: "Enoblituzumab (MGA271; from Macrogenics), a humanized mAb targeting B7-H3"
Take B2: in data set [13], the “antitumor activity in xenograft models” value is listed as “potent antitumor activity”. The “safety findings in toxicology studies” value in data set [14] is reported as “no significant safety findings”.
